# Experimental data from patent US20110136737A1.
# Target: T1, GIP receptor (GIP RBA, RIN), P43219
# T1 chain: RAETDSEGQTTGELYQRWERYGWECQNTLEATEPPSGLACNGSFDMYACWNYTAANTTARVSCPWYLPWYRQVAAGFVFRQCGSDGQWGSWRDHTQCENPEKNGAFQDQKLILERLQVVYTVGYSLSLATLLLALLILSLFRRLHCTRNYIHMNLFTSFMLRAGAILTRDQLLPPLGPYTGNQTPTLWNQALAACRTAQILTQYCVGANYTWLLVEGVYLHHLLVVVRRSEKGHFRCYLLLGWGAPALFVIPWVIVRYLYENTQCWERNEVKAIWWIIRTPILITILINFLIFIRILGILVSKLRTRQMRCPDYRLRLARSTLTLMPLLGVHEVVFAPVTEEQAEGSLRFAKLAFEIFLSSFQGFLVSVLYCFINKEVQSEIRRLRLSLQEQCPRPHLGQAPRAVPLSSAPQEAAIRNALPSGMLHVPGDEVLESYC
# Experiment: cell-based or functional assay
row,Binder,Cyclase
1,GYAEGTFISDYSIAMDKIHQQDFVNWLLAQKPSSGAPPPS (modifications not checked) [0601GIP4178],96
2,YAEGTFISEYSIAMDKIHQQDFVNWLLAQKPSSGAPPPS (modifications not checked) [0601GIP4151],10000
3,YAEGTFISDYSIAMDKIHQQDFVNWLLAQAPSSGAPPPS (modifications not checked) [0601GIP4165],40

# Target: T2, human GIP receptor (human), P48546
# T2 chain: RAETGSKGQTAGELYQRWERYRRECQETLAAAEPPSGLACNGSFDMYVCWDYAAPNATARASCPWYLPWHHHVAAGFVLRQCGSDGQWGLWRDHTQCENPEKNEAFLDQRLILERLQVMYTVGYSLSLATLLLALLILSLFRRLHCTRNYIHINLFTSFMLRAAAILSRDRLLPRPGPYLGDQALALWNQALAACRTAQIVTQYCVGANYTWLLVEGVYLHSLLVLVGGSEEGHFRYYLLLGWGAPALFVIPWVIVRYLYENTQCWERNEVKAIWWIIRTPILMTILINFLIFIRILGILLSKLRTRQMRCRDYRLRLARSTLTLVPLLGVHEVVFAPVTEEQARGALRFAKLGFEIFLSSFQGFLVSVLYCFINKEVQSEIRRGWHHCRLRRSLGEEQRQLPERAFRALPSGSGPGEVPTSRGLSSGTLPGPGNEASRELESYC
# Experiment: 125I-GIP displacement by 10 nM analog, HEK-GIPR membranes
row,Binder,% Inh at 10 nM [%]
1,YAEGFISDYSIAMDKIHQQDFVNWLLAQKPSPKKIRYS (modifications not checked) [0601GIP4820],46
2,YAEGTFISDYSIAMDKIHQQDFVNWLLAQKPSPKKIRYS (modifications not checked) [0601GIP4823],94.1
3,YAEGTFISDYSIAMDKIHQQDFVNWLLAQKPKGKGKS (modifications not checked) [0601GIP4700],86.6
4,YAEGTFISDYSIAMDKIHQQDFVNWLLAQKPSKEIIH (modifications not checked) [0601GIP4710],79.2
5,YAEGTFISDYSIAMDKIHQQDFVNWLLAQKPSKEIIS (modifications not checked) [0601GIP4765],67
6,YAEGTFISDYSIAMDKIHQQDFVNWLLAQKGFVLWKGIQ (modifications not checked) [0601GIP4619],84.6
7,LYAEGTFISDYSIAMDKIHQQDFVNWLLAQKPKKIRYS (modifications not checked) [0601GIP4798],82.3
8,LYAEGTFISDYSIALDKIAQQEFVNWLLAQKPKKIRYS (modifications not checked) [0601GIP4803],89.9
9,IYAEGTFISDYSIAMDKIHQQDFVNWLLAQKPKKIRYS (modifications not checked) [0601GIP4801],88.8
10,LYAEGTFISDYSIALDKIAQQEFVNWLLAQKPKKIRYS (modifications not checked) [0601GIP4802],87.3
11,YAEGTFISDYSIALDKIHQQDFVNWLLAQKPKKIRYS (modifications not checked) [0601GIP4807],96.1
12,YAEGTFISDYSIAMDKIHQQDFVNWLLAQKPKKIRYS (modifications not checked) [0601GIP4762],79.1
13,YAEGTFISDYSIAMDKIHQQDFVNWLLAQKPKKIRYS (modifications not checked) [0601GIP4233],89
14,YAEGTFISDYSIAMDKIHQQDFVPWLLAQKPKKIRYS (modifications not checked) [0601GIP4768],17.9
15,YAEGTFISDYSIAMDKIHQQDFVNWLLAQKPAKIRYS (modifications not checked) [0601GIP4815],89
16,YADGTFISDYSIAMDKIHQQDFVNWLLAQKPKKIRYS (modifications not checked) [0601GIP4390],90.3
17,HGEGTFISDYSIAMDKIHQQDFVNWLLAQKPKKIRYS (modifications not checked) [0601GIP4839],23.9

row,Binder,% Inh at 10 nM [%]
1,YAEGTFISDYSIALDKIRQQDFVEWLLAQKPKKIRYS (modifications not checked) [0601GIP4540],92.2
2,YSDGTFISDYSIAMDKIHQQDFVNWLLAQKPKKIRYS (modifications not checked) [0601GIP4386],93.6
3,YAEGTFISDYSIAMDKIHQQDFVNPLLAQKPKKIRYS (modifications not checked) [0601GIP4770],10.8
4,YAEGTFISDYSIAMDKIHQQDFVNWLEAQKPKKIRYS (modifications not checked) [0601GIP4771],17.8
5,YAEGTFISDYSIAMDKIHQQDFVNWLLAQKPKKLKPS (modifications not checked) [0601GIP4822],95.4
6,YAEGTFISDYSIAMDKIHQQDFVNELLAQKPKKIRYS (modifications not checked) [0601GIP4769],42.8
7,HAEGTFISDYSIAMDKIHQQDFVNWLLAQKPKKIRYS (modifications not checked) [0601GIP4840],44.1
8,HGEGTFISDYSIALDKIRQQEFVNWLLAQKPKKIRYS (modifications not checked) [0601GIP4842],40.8
9,YAEGTFISDYSIALDKIAQQEFVNWLLAQKPKKIRYS (modifications not checked) [0601GIP4631],79
10,YAEGTFISDYSIALDKIRQQEFVNWLLAQKPKKIRYS (modifications not checked) [0601GIP4539],98.7
11,YAEGTFISDYSIAMDKIHQQDFVNWLLAQKPKAIRYS (modifications not checked) [0601GIP4816],87.3
12,HGEGTFISDYSIALDKIAQQEFVNWLLAQKPKKIRYS (modifications not checked) [0601GIP4841],56.6
13,YAEGTFISDYSIAMDKIHQQDFVNWLLAQKPKKIRYA (modifications not checked) [0601GIP4819],80.4
14,YSEGTFISDYSIAMDKIHQQDFVNWLLAQKPKKIRYS (modifications not checked) [0601GIP4538],94.2
15,YAEGTFISDYSIAMDKIHQQDFVNWLLAQKPKSARPS (modifications not checked) [0601GIP4821],93.5
16,YAEGTFISDYSIAMDKIHQQDFVNWLLAQKAKKIRYS (modifications not checked) [0601GIP4814],88

# Target: T1, GIP receptor (GIP RBA, RIN), P43219
# Experiment: cell-based or functional assay
# Remark: another data set of the same source
row,Binder,Cyclase
1,GYAEGTFISDYSIAMDKIHQQDFVNWLLAQKPSSGAPPPS (modifications not checked) [0601GIP4178],36.2
2,GYAEGTFISDYSIAMDKIRQQDFVNWLLAQKPSSGAPPPS (modifications not checked) [0601GIP4293],20
